{
  "source": "patent US6673902B2",
  "about": "“Cyclin D binding factor, and uses thereof” (St. Jude Children's Research Hospital, priority 1996, dated 2004)",
  "key": {"[1]": {"tested_on": "p19ARF", "assay": "Induction of endogenous p19ARF protein in retrovirus-infected MEFs", "type": "cell-based, mouse", "conditions": "early passage MEFs, retroviral infection", "method": "Virus production and infection. Human kidney 293T cells were transfected with a helper ecotropic retrovirus plasmid defective in psi-2 packaging sequences, together with pSRα vectors containing murine DMP1, human c-Myc, human E2F-1, or human Ets1 cDNAs [Zindy, et al., Genes Dev. 12:2424-2433 (1998); Inoue and Sherr, J. Biol. Chem. 273:29188-29194 (1998)]. Viruses were harvested every 6 hours 24-72 hours after transfection, filtered and stored at 4° C. until used for infection [Zindy, et al., Genes Dev. 12:2424-2433 (1998)]. In order to construct a retroviral vector containing DMP1 linked to a mutated tamoxifen-responsive element of the estrogen receptor (DMP1-ER™), a 3′ 0.3 kb EcoNI DNA fragment of murine DMP1 cDNA was amplified by PCR using\nRNA and protein expression. Quantitative RT-PCRs employed specific primers for murine ARF exon 1β (30 cycles) and for β-actin (20 cycles) used as a control [Zindy et al., Oncogene 15:203-211 (1997)]. […]\nBased on the above observations, it was determined as to whether introduction of DMP1 would induce synthesis of the endogenous ARF protein in normal diploid fibroblast strains. […] Although the blot was normalized for protein input, the levels of p19^ARF induced by DMP1 were calculated to be 2-fold higher than those induced by Myc, because fewer cells were productively infected with the DMP1 virus in this experiment (see FIG. 15A)."}, "[2]": {"tested_on": "wild-type MEFs", "assay": "Apoptosis assay in wild-type MEFs deprived of serum", "type": "cell-based, mouse", "method": "Apoptosis assays. Wild-type MEFs infected with the indicated retroviruses for 36 hours were starved for serum for 24 hours. Viability was determined by trypan blue dye exclusion, and DNA fragmentation was monitored by a terminal deoxynuclectidyl transferase (FACS-TUNEL) assay and by measurement of subdiploid DNA content of propidium iodide-stained nuclei [Zindy et al., Genes Dev. 12:2424-2433 (1998)].\nOn the other hand, MEFs overexpressing c-Myc, E2F-1, or E1A are exquisitely sensitive to apoptosis. […] 12:2424-2433 (1998); De Stanchina et al., Genes Dev. 12:2434-2442 (1998)]."}, "[3]": {"biological_target": "T1, D-type cyclins (Mus musculus, UniProt P25322)", "T1 construct": "made in house; host or cells: in vitro transcription (Stratagene) and translation (rabbit reticulocyte system, Promega)", "T1 sequence (P25322 whole entry, the tested form may be a part)": "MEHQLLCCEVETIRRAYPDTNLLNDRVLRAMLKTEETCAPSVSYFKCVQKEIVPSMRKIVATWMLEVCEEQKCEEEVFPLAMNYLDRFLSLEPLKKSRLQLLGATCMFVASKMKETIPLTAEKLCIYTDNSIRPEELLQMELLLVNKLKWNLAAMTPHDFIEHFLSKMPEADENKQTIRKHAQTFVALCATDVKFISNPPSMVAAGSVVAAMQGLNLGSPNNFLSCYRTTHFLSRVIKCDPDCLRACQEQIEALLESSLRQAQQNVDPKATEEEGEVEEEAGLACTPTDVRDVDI", "assay": "In vitro binding of [35S]methionine-labeled D-type cyclins to GST fusion proteins", "conditions": "cyclin D1", "method": "A BglII fragment encoding amino acids 176-761 of DMP1 (FIG. 1) is subcloned into the BamHI site of the pGEX-3X plasmid (Pharmacia, Uppsala Sweden), and overnight cultures of transformed bacteria are diluted 10-fold with fresh medium, cultured for 2-4 more hours at 37° C., and induced with 1 mM isopropyl-β-D-thiogalactopyranoside (IPTG) for 1 hour. Induced bacteria are lysed by sonication in phosphate-buffered saline (PBS) containing 1% Triton X-100, and recombinant glutathione-S-transferase (GST)-DMP1 protein is purified by absorption and elution from glutathione-Sepharose beads as described (35). […] After 2 hours at 4° C., the beads are collected by centrifugation, washed 4 times with IP Kinase buffer, and the bound proteins are denatured and analyzed by electrophoresis on 11% polyacrylamide gels containing sodium dodecyl sulfate (SDS) (1).\nBecause DMP1 interacted with cyclin D2 in yeast, the ability of a glutathione S-transferase (GST)-DMP1 fusion protein to bind D-type cyclins in vitro is examined. […] Bound cyclins recovered on washed glutathione-Sepharose beads are analyzed by electrophoresis on denaturing gels. […] GST-DMP1 is less efficient than GST-RB in binding cyclins D2 and D3 (˜4-fold less binding), and under these conditions, an interaction with D1 is not detected (lanes 3, 7, 11). […]"}, "[4]": {"tested_on": "281 bp ARF promoter fragment", "assay": "Transactivation of ARF promoter-luciferase reporter in NIH-3T3 cells", "type": "cell-based, mouse", "conditions": "NIH-3T3, 281 bp ARF promoter fragment-luciferase", "method": "Transactivation assays. NIH-3T3 cells were transfected with 4 μg of pGL2-ARFpro BamHI or its DMP1 binding site mutant, with or without increasing amount of pFLEX-DMP1, pEVRFO-Ets1, pCMV-Ets2, pRcRSV-Elfl, pdEB-Fli1, p(IEB-EWS-Fli1 or pCMV-E2F-1 (89-437), and 4 μg β-actin SEAP control vectors [Inoue and Sherr, Mol. Cell. Biol. 18: 1590-1600 (1998); Inoue et al., J. Biol. Chem. 273:29188-29194 (1998); Davis and Roussel, Gene 171:265-269 (1996); Baily et al., Mol. Cell. Biol. 14:3230-3241 (1994)]. Transfections and normalization of luciferase levels with internal control SEAP levels were performed as described [Inoue and Sherr, Mol. Cell. Biol. 18:1590-1600 (1998)].\nSimilarly, DMP1 deletion mutants defective in transactivation [Inoue and Sherr, Mol. Cell. […] Mutation of the DMP1 binding site within the ARF promoter [changing CCCGGATGC, (SEQ ID NO:33) to CCCGTCGAC, (SEQ ID NO:42)] also completely abolished transactivation by wild-type DMP1 (FIG. 14C, mutant reporter). Therefore, sequences within the −189 to −181 ARF promoter segment were the only ones responsible for DMP1-mediated transactivation. Although Ets1 could bind to a 23 base pair oligonucleotide containing the DMP1 consensus site (FIG. 14B), several Ets proteins were unable to induce significant reporter gene expression from the more complex 281 base pair ARF promoter (FIG. 14C). […]"}},
  "data": [
    {"molecule": "Myc: known rapid inducer of p19ARF protein expression used as positive control (protein, UniProt P01108 1-454, looked up) Myc proto-oncogene protein: MDFLWALETPQTATTMPLNVNFTNRNYDLDYDSVQPYFICDEEENFYHQQQQSELQPPAPSEDIWKKFELLPTPPLSPSRRSGLCSPSYVAVATSFSPREDDDGGGGNFSTADQLEMMTELLGGDMVNQSFICDPDDETFIKNIIIQDCMWSGFSAAAKLVSEKLASYQAARKDSTSLSPARGHSVCSTSSLYLQDLTAAASECIDPSVVFPYPLNDSSSPKSCTSSDSTAFSPSSDSLLSSESSPRASPEPLVLHEETPPTTSSDSEEEQEDEEEIDVVSVEKRQTPAKRSESGSSPSRGHSKPPHSPLVLKRCHVSTHQHNYAAPPSTRKDYPAAKRAKLDSGRVLKQISNNRKCSSPRSSDTEENDKRRTHNVLERQRRNELKRSFFALRDQIPELENNEKAPKVVILKKATAYILSIQADEHKLTSEKDLLRKRREQLKHKLEQLRNSGA", "values": [
      {"measurement": "ARF protein synthesis", "setting": "[1]", "result": "induced ARF protein synthesis"},
      {"measurement": "apoptosis / cell death", "setting": "[2]", "result": "induced cell death"}
    ]},
    {"molecule": "GST-DMP1: GST fused to residues 176-761 of DMP1, bacterially synthesized (protein, left off: a dimerising Fc or GST, GST fused to residues 176-761 of DMP1, bacterially synthesized) GIKDATEIIFEMSKDERKDFYRTIAWGLNRPLFAVYRRVLRMYDDRNHVGKYTPEEIEKLKELRIKHGNDWATIGAALGRSASSVKDRCRLMKDTCNTGKWTEEEEKRLAEVVHELTSTEPGDIVTQGVSWAAVAERVGTRSEKQCRSKWLNYLNWKQSGGTEWTKEDEINLILRIAELDVADENDINWDLLAEGWSSVRSPQWLRSKWWTIKRQIANHKDVSFPVLIKGLKQLHENQKNNPVLLENKSGSGVPNSNCNSSVQHVQIRVARLEDNTAISPSPMAALQIPVQITHVSSTDSPAASADSETITLNSGTLQTFEILPSFPLQPTGTPGTYLLQTSSSQGLPLTLTTNPTLTLAAAAPASPEQIIVHALSPEHLLNTSDNVTVQCHTPRVIIQTVATEDITSSLSQEELTVDSDLHSSDFPEPPDALEADTFPDEIPRPKMTIQPSFNNAHVSKFSDQNSTELMNSVMVRTEEEIADTDLKQEEPPSDLASAYVTEDLESPTIVHQVHQTIDDETILIVPSPHGFIQASDVIDTESVLPLTTLTDPIFQHHQEASNIIGSSLGSPVSEDSKDVEDLVNCH", "values": [
      {"measurement": "interaction with D1", "setting": "[3]", "result": "not detected"}
    ]},
    {"molecule": "ARF: ARF tumor suppressor protein (protein) MGRRFLVTVRIQRAGRPLQERVFLVKFVRSRRPRTASCALAFVNMLLRLERILRRGPHRNPGPGDDDGQRSRSSSSAQLRCRFELRGPHYLLPPGARRSAGRLPGHAGGAARVRGSAGCARCLGSPAARLGPRAGTSRHRAIFAFRWVLFVFRWVVFVYRWERRPDRRA", "values": [
      {"measurement": "apoptosis / cell death", "setting": "[2]", "result": "did not trigger apoptosis"}
    ]},
    {"molecule": "Fli1: Ets family member (protein, UniProt P26323 1-452, looked up) Friend leukemia integration 1 …: MDGTIKEALSVVSDDQSLFDSAYGAAAHLPKADMTASGSPDYGQPHKINPLPPQQEWINQPVRVNVKREYDHMNGSRESPVDCSVSKCNKLVGGGEANPMNYNSYMDEKNGPPPPNMTTNERRVIVPADPTLWTQEHVRQWLEWAIKEYGLMEIDTSFFQNMDGKELCKMNKEDFLRATSAYNTEVLLSHLSYLRESSLLAYNTTSHTDQSSRLNVKEDPSYDSVRRGAWNNNMNSGLNKSPLLGGSQTMGKNTEQRPQPDPYQILGPTSSRLANPGSGQIQLWQFLLELLSDSANASCITWEGTNGEFKMTDPDEVARRWGERKSKPNMNYDKLSRALRYYYDKNIMTKVHGKRYAYKFDFHGIAQALQPHPTETSMYKYPSDISYMPSYHAHQQKVNFVPSHPSSMPVTSSSFFGAASQYWTSPTAGIYPNPSVPRHPNTHVPSHLGSYY", "values": [
      {"measurement": "ARF promoter reporter gene expression", "setting": "[4]", "result": "minimal activity"}
    ]}
  ]
}
